US20090068637A1 (published 2009)

Legend:
[1] = molecular target: T1, HA of H5N1 virus strain MB1 (avian influenza virus H5N1); assay: cell-based or functional assay
[2] = molecular target: T2, HA of H5N1 virus strain MB2 (avian influenza virus H5N1); assay: cell-based or functional assay
[3] = molecular target: T3, HA of H5N1 virus strain MIX1 (avian influenza virus H5N1); assay: cell-based or functional assay
[4] = molecular target: T4, HA of H5N1 virus strain MIX2 (avian influenza virus H5N1); assay: cell-based or functional assay
[5] = molecular target: T5, HA of H5N1 virus strain MIX3 (avian influenza virus H5N1); assay: cell-based or functional assay
[6] = molecular target: T6, HA of H5N1 virus strain GD1 (avian influenza virus H5N1); assay: cell-based or functional assay
[7] = molecular target: T7, HA of H5N1 virus strain GD2 (avian influenza virus H5N1); assay: cell-based or functional assay
[8] = molecular target: T8, HA of H5N1 virus strain GD3 (avian influenza virus H5N1); assay: cell-based or functional assay
[9] = molecular target: T9, HA of H5N1 virus strain YN1 (avian influenza virus H5N1); assay: cell-based or functional assay
[10] = molecular target: T10, HA of H5N1 virus strain HN1 (avian influenza virus H5N1); assay: cell-based or functional assay
[11] = molecular target: T11, HA of H5N1 virus strain HN2 (avian influenza virus H5N1); assay: cell-based or functional assay
[12] = molecular target: T12, HA of H5N1 virus strain IDN1.1 (avian influenza virus H5N1); assay: cell-based or functional assay
[13] = molecular target: T13, HA of H5N1 virus strain IDN2 (avian influenza virus H5N1); assay: cell-based or functional assay
[14] = molecular target: T14, HA of H5N1 virus strain IDN3 (avian influenza virus H5N1); assay: cell-based or functional assay
[15] = molecular target: T15, HA of H5N1 virus strain IDN4 (avian influenza virus H5N1); assay: cell-based or functional assay
[16] = molecular target: T16, HA of H5N1 virus strain IDN5 (avian influenza virus H5N1); assay: cell-based or functional assay
[17] = molecular target: T17, HA of H5N1 virus strain VTM1.1 (avian influenza virus H5N1); assay: cell-based or functional assay
[18] = molecular target: T18, HA of H5N1 virus strain VTM2 (avian influenza virus H5N1); assay: cell-based or functional assay
[19] = molecular target: T19, HA of H5N1 virus strain VTM3 (avian influenza virus H5N1); assay: cell-based or functional assay
[20] = molecular target: T20, HA of H5N1 virus strain VTM4 (avian influenza virus H5N1); assay: cell-based or functional assay
[21] = molecular target: T21, HA of H5N1 virus strain VNM2.1 (avian influenza virus H5N1); assay: cell-based or functional assay
[22] = molecular target: T2, HA of H5N1 virus strain MB2; assay: cell-based or functional assay; remark: listed apart in the source
[23] = molecular target: T3, HA of H5N1 virus strain MIX1; assay: cell-based or functional assay; remark: listed apart in the source
[24] = molecular target: T4, HA of H5N1 virus strain MIX2; assay: cell-based or functional assay; remark: listed apart in the source
[25] = molecular target: T5, HA of H5N1 virus strain MIX3; assay: cell-based or functional assay; remark: listed apart in the source
[26] = molecular target: T6, HA of H5N1 virus strain GD1; assay: cell-based or functional assay; remark: listed apart in the source
[27] = molecular target: T7, HA of H5N1 virus strain GD2; assay: cell-based or functional assay; remark: listed apart in the source
[28] = molecular target: T8, HA of H5N1 virus strain GD3; assay: cell-based or functional assay; remark: listed apart in the source
[29] = molecular target: T10, HA of H5N1 virus strain HN1; assay: cell-based or functional assay; remark: listed apart in the source
[30] = molecular target: T11, HA of H5N1 virus strain HN2; assay: cell-based or functional assay; remark: listed apart in the source
[31] = molecular target: T12, HA of H5N1 virus strain IDN1.1; assay: cell-based or functional assay; remark: listed apart in the source
[32] = molecular target: T13, HA of H5N1 virus strain IDN2; assay: cell-based or functional assay; remark: listed apart in the source
[33] = molecular target: T15, HA of H5N1 virus strain IDN4; assay: cell-based or functional assay; remark: listed apart in the source
[34] = molecular target: T16, HA of H5N1 virus strain IDN5; assay: cell-based or functional assay; remark: listed apart in the source
[35] = molecular target: T17, HA of H5N1 virus strain VTM1.1; assay: cell-based or functional assay; remark: listed apart in the source
[36] = molecular target: T18, HA of H5N1 virus strain VTM2; assay: cell-based or functional assay; remark: listed apart in the source
[37] = molecular target: T19, HA of H5N1 virus strain VTM3; assay: cell-based or functional assay; remark: listed apart in the source
[38] = molecular target: T20, HA of H5N1 virus strain VTM4; assay: cell-based or functional assay; remark: listed apart in the source
[39] = molecular target: T21, HA of H5N1 virus strain VNM2.1; assay: cell-based or functional assay; remark: listed apart in the source
[40] = molecular target: T1, HA of H5N1 virus strain MB1; assay: cell-based or functional assay; remark: listed apart in the source
[41] = molecular target: T9, HA of H5N1 virus strain YN1; assay: cell-based or functional assay; remark: listed apart in the source
[42] = molecular target: T14, HA of H5N1 virus strain IDN3; assay: cell-based or functional assay; remark: listed apart in the source
[43] = molecular target: T22, fusion protein HBc-D123 (HBV); assay: ELISA, fusion protein coated at 10 ug/ml
T22 chain: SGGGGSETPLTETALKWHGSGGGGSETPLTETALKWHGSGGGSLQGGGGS

[44] = molecular target: T23, fusion protein HBc-D125 (HBV); assay: ELISA, fusion protein coated at 10 ug/ml
T23 chain: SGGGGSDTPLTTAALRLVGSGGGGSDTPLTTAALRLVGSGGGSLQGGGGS

[45] = molecular target: T24, fusion protein HBc-122 (HBV); assay: indirect ELISA, fusion protein coated at 10 ug/ml, 12 mAb tested
T24 chain: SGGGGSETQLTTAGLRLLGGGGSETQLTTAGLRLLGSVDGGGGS

[46] = molecular target: T25, fusion protein HBc-124 (HBV); assay: as above
T25 chain: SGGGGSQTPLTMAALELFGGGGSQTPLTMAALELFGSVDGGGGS

[47] = molecular target: T26, fusion protein HBc-128 (HBV); assay: as above
T26 chain: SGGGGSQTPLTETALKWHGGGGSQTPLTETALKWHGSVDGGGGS

B1: monoclonal antibody 2F2 (antibody, V domains shown)
VH: QVQLKESGPGLVAPSQRLSITCTVSGFSLTGYGVHWIRQSPGKGLEWLGMIWAEGRTDYNSVLKSRLSINKDNSRSQVFLEMNSLQTDDTARYYCAREVITTEAWYFDVWGQGTSVTES
VL: DIVMTQSPATLSVTPGDRVSLSCRASQSISDYLYWYQQKSHESPRLLIKYASQSISGIPSRFSGSGSGSDFTLTINSVEPEDVGMYYCQNGHTFPLTFGAGTKLEIKR
- HI titer [1]: < 100 titer
- HI titer [2]: 6400 titer
- HI titer [3]: < 100 titer
- HI titer [4]: < 100 titer
- HI titer [5]: 12800 titer
- HI titer [6]: 12800 titer
- HI titer [7]: 12800 titer
- HI titer [8]: 12800 titer
- HI titer [9]: 800 titer
- HI titer [10]: 6400 titer
- HI titer [11]: 1600 titer
- HI titer [12]: 12800 titer
- HI titer [13]: 800 titer
- HI titer [14]: 1600 titer
- HI titer [15]: 12800 titer
- HI titer [16]: 12800 titer
- HI titer [17]: 12800 titer
- HI titer [18]: 3200 titer
- HI titer [19]: 12800 titer
- HI titer [20]: 6400 titer
- HI titer [21]: 200 titer
- Neutralization titer [22]: 12800 titer
- Neutralization titer [23]: 100 titer
- Neutralization titer [24]: 100 titer
- Neutralization titer [25]: 12800 titer
- Neutralization titer [26]: 12800 titer
- Neutralization titer [27]: 12800 titer
- Neutralization titer [28]: 12800 titer
- Neutralization titer [29]: 12800 titer
- Neutralization titer [30]: 12800 titer
- Neutralization titer [31]: 12800 titer
- Neutralization titer [32]: 12800 titer
- Neutralization titer [33]: 12800 titer
- Neutralization titer [34]: 12800 titer
- Neutralization titer [35]: 1600 titer
- Neutralization titer [36]: 12800 titer
- Neutralization titer [37]: 12800 titer
- Neutralization titer [38]: 12800 titer
- Neutralization titer [39]: 12800 titer

B2: monoclonal antibody 8H5 (antibody, V domains shown)
VH: QVQLQQSGAELMKPGASVKISCKATGYTFSNYWIEWIKQRPGHGLEWIGEILPGSDRTNYNGKFKGKATFTADTSSNTAHMQLSSLTSEDSAVYYCANRYDGYYFGLDYWGQGTSVAVSS
VL: EIVLTQSPAIMSASLGEKVTMSCRASSSVNFVYWYQQRSDASPKLLIYYSSNLAPGVPPRFSGSGSGNSYSLTISGLEGEDAATYYCQHFTSSPYTFGGGTNLEIKR
- HI titer [1]: 3200 titer
- HI titer [2]: 6400 titer
- HI titer [3]: 12800 titer
- HI titer [4]: 6400 titer
- HI titer [5]: 12800 titer
- HI titer [6]: 12800 titer
- HI titer [7]: 12800 titer
- HI titer [8]: 12800 titer
- HI titer [9]: 3200 titer
- HI titer [10]: 12800 titer
- HI titer [11]: 3200 titer
- HI titer [12]: 12800 titer
- HI titer [13]: 1600 titer
- HI titer [14]: 3200 titer
- HI titer [15]: 12800 titer
- HI titer [16]: 6400 titer
- HI titer [17]: 12800 titer
- HI titer [18]: 6400 titer
- HI titer [19]: 6400 titer
- HI titer [20]: 1600 titer
- HI titer [21]: 6400 titer
- Neutralization titer [40]: 6400 titer
- Neutralization titer [22]: 12800 titer
- Neutralization titer [23]: 12800 titer
- Neutralization titer [24]: 6400 titer
- Neutralization titer [25]: 12800 titer
- Neutralization titer [26]: 12800 titer
- Neutralization titer [27]: 12800 titer
- Neutralization titer [28]: 12800 titer
- Neutralization titer [41]: 6400 titer
- Neutralization titer [29]: 12800 titer
- Neutralization titer [30]: 6400 titer
- Neutralization titer [31]: 12800 titer
- Neutralization titer [32]: 6400 titer
- Neutralization titer [42]: 12800 titer
- Neutralization titer [33]: 12800 titer
- Neutralization titer [34]: 6400 titer
- Neutralization titer [35]: 1600 titer
- Neutralization titer [36]: 800 titer
- Neutralization titer [37]: 12800 titer
- Neutralization titer [38]: 1600 titer
- Neutralization titer [39]: 3200 titer
- binding result [43]: binds
- binding result [44]: binds
- binding result [45]: binds
- binding result [46]: binds
- binding result [47]: binds
